Measured values published in publication PMC10980208, “A novel micellular fluorogenic substrate for quantitating the activity of 1-phosphatidylinositol 4,5-bisphosphate phosphodiesterase gamma (PLCγ) enzymes” (PLOS ONE, 2024).

Substrate: CCCCCCCCCCCCCCCCOc1cc(COC(=O)Nc2ccc3c(C(F)(F)F)cc(=O)oc3c2)ccc1OP(=O)(O)O[C@@H]1[C@H](O)[C@H](O)[C@@H](OP(=O)(O)O)[C@H](OP(=O)(O)O)[C@H]1O
Test: purified protein
Settings: Ca2+

| Protein | Km | Vmax | kcat | kcat/Km |
| --- | --- | --- | --- | --- |
| PLCγ2 (Homo sapiens) (protein) MSTTVNVDSLAEYEKSQIKRALELGTVMTVFSFRKSTPERRTVQVIMETRQVAWSKTADKIEGFLDIMEIKEIRPGKNSKDFERAKAVRQKEDCCFTILYGTQFVLSTLSLAADSKEDAVNWLSGLKILHQEAMNASTPTIIESWLRKQIYSVDQTRRNSISLRELKTILPLINFKVSSAKFLKDKFVEIGAHKDELSFEQFHLFYKKLMFEQQKSILDEFKKDSSVFILGNTDRPDASAVYLHDFQRFLIHEQQEHWAQDLNKVRERMTKFIDDTMRETAEPFLFVDEFLTYLFSRENSIWDEKYDAVDMQDMNNPLSHYWISSSHNTYLTGDQLRSESSPEAYIRCLRMGCRCIELDCWDGPDGKPVIYHGWTRTTKIKFDDVVQAIKDHAFVTSSFPVILSIEEHCSVEQQRHMAKAFKEVFGDLLLTKPTEASADQLPSPSQLREKIIIKHKKLGPRGDVDVNMEDKKDEHKQQGELYMWDSIDQKWTRHYCAIADAKLSFSDDIEQTMEEEVPQDIPPTELHFGEKWFHKKVEKRTSAEKLLQEYCMETGGKDGTFLVRESETFPNDYTLSFWRSGRVQHCRIRSTMEGGTLKYYLTDNLTFSSIYALIQHYRETHLRCAEFELRLTDPVPNPNPHESKPWYYDSLSRGEAEDMLMRIPRDGAFLIRKREGSDSYAITFRARGKVKHCRINRDGRHFVLGTSAYFESLVELVSYYEKHSLYRKMRLRYPVTPELLERYNMERDINSLYDVSRMYVDPSEINPSMPQRTVKALYDYKAKRSDELSFCRGALIHNVSKEPGGWWKGDYGTRIQQYFPSNYVEDISTADFEELEKQIIEDNPLGSLCRGILDLNTYNVVKAPQGKNQKSFVFILEPKQQGDPPVEFATDRVEELFEWFQSIREITWKIDTKENNMKYWEKNQSIAIELSDLVVYCKPTSKTKDNLENPDFREIRSFVETKADSIIRQKPVDLLKYNQKGLTRVYPKGQRVDSSNYDPFRLWLCGSQMVALNFQTADKYMQMNHALFSLNGRTGYVLQPESMRTEKYDPMPPESQRKILMTLTVKVLGARHLPKLGRSIACPFVEVEICGAEYDNNKFKTTVVNDNGLSPIWAPTQEKVTFEIYDPNLAFLRFVVYEEDMFSDPNFLAHATYPIKAVKSGFRSVPLKNGYSEDIELASLLVFCEMRPVLESEEELYSSCRQLRRRQEELNNQLFLYDTHQNLRNANRDALVKEFSVNENQLQLYQEKCNKRLREKRVSNSKFYS | 4.6 ± 0.8 µM | 0.019 µmol/min/mg | 0.045 ± 0.00333 s⁻¹ | 10000 ± 1670 M⁻¹ s⁻¹ |
| PLCγ1 (Homo sapiens) (protein) AGAASPCANGCGPGAPSDAEVLHLCRSLEVGTVMTLFYSKKSQRPERKTFQVKLETRQITWSRGADKIEGAIDIREIKEIRPGKTSRDFDRYQEDPAFRPDQSHCFVILYGMEFRLKTLSLQATSEDEVNMWIKGLTWLMEDTLQAPTPLQIERWLRKQFYSVDRNREDRISAKDLKNMLSQVNYRVPNMRFLRERLTDLEQRSGDITYGQFAQLYRSLMYSAQKTMDLPFLEASTLRAGERPELCRVSLPEFQQFLLDYQGELWAVDRLQVQEFMLSFLRDPLREIEEPYFFLDEFVTFLFSKENSVWNSQLDAVCPDTMNNPLSHYWISSSHNTYLTGDQFSSESSLEAYARCLRMGCRCIELDCWDGPDGMPVIYHGHTLTTKIKFSDVLHTIKEHAFVASEYPVILSIEDHCSIAQQRNMAQYFKKVLGDTLLTKPVEISADGLPSPNQLKRKILIKHKKLAEGSAYEEVPTSMMYSENDISNSIKNGILYLEDPVNHEWYPHYFVLTSSKIYYSEETSSDQGNEDEEEPKEVSSSTELHSNEKWFHGKLGAGRDGRHIAERLLTEYCIETGAPDGSFLVRESETFVGDYTLSFWRNGKVQHCRIHSRQDAGTPKFFLTDNLVFDSLYDLITHYQQVPLRCNEFEMRLSEPVPQTNAHESKEWYHASLTRAQAEHMLMRVPRDGAFLVRKRNEPNSYAISFRAEGKIKHCRVQQEGQTVMLGNSEFDSLVDLISYYEKHPLYRKMKLRYPINEEALEKIGTAEPDYGALYEGRNPGFYVEANPMPTFKCAVKALFDYKAQREDELTFIKSAIIQNVEKQEGGWWRGDYGGKKQLWFPSNYVEEMVNPVALEPEREHLDENSPLGDLLRGVLDVPACQIAIRPEGKNNRLFVFSISMASVAHWSLDVAADSQEELQDWVKKIREVAQTADARLTEGKIMERRKKIALELSELVVYCRPVPFDEEKIGTERACYRDMSSFPETKAEKYVNKAKGKKFLQYNRLQLSRIYPKGQRLDSSNYDPLPMWICGSQLVALNFQTPDKPMQMNQALFMTGRHCGYVLQPSTMRDEAFDPFDKSSLRGLEPCAISIEVLGARHLPKNGRGIVCPFVEIEVAGAEYDSTKQKTEFVVDNGLNPVWPAKPFHFQISNPEFAFLRFVVYEEDMFSDQNFLAQATFPVKGLKTGYRAVPLKNNYSEDLELASLLIKIDIFPAKENGDLSPFSGTSLRERGSDASGQLFHGRAREGSFESRYQQPFEDFRISQEHLADHFDSRERRAPRRTRVNGDNRL | 27.7 ± 14.5 µM | 0.35 µmol/min/mg | 0.833 ± 0.367 s⁻¹ | 32700 ± 6670 M⁻¹ s⁻¹ |
